Target: T1, QE-Bgn (bacterially expressed recombinant human biglycan core) (human, UniProt P21810 38-368)
T1 construct: Produced in E. coli M15[pREP4]; contains no chondroitin sulfate side chains; tested as lysate of induced bacteria on a blot; also called QE-BIG; bacterially-expressed biglycan
T1 sequence: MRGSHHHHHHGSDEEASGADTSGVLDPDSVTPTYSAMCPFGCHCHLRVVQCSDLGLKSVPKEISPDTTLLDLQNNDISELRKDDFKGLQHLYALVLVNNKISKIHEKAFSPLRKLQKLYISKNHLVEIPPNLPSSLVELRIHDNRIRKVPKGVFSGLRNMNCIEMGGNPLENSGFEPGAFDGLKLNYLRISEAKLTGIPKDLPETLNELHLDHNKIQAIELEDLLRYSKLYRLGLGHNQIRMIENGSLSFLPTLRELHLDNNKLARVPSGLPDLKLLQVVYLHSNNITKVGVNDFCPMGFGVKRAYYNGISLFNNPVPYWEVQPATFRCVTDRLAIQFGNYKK
Assay: dystroglycan blot overlay on lysate of induced bacteria (FIG. 7)

B1: α-dystroglycan (dystroglycan as named in the overlay assays; fragment not named at the place) (receptor, human, UniProt Q14118 345-653, looked up)
chain: PAIAPPTETMAPPVRDPVPGKPTVTIRTRGAIIQTPTLGPIQPTRVSEAGTTVPGQIRPTMTIPGYVEPTAVATPPTTTTKKPRVSTPKPATPSTDSTTTTTRRPTKKPRTPRPVPRVTTKVSITRLETASPPTRIRTTTSGVPRGGEPNQRPELKNHIDRVDAWVGTYFEVKIPSDTFYDHEDTTTDKLKLTLKLREQQLVGEKSWVQFNSNSQLMYGLPDSSHVGKHEYFMHATDKGGLSAVDAFEIHVHRRPQGDRAPARFKAKFVGDPALVLNDIHKKIALVKKLAFAFGDRNCSTITLQNITRG
notes: also called alpha-dystroglycan
  binding result: no binding

Source: patent US20040063627A1 (BROWN UNIVERSITY RESEARCH FOUNDATION, published 2004)
